Measurements from patent CN114057887A.
Where two headings read alike, the source gives them in different places.

How the values were obtained:
[1] = molecular target: RBD-Fc (义翘神州，40592-V05H) (SARS-CoV-2) (UniProt P0DTC2)
[2] = molecular target: RBD-Fc (义翘神州，40592-V05H) (SARS-CoV-2) (UniProt P0DTC2); remark: listed apart in the source

Substance: hACE2-Fc融合蛋白 (人ACE2胞外区(ECD)与人IgG1的Fc片段的融合蛋白) (Fc fusion)
- IC50 [1]: 5.02 nM
- IC50 [2]: 7.6 nM
